Experimental data from patent publication US7189837 (NEUROTECH S A, dated 2007).
One block for each molecule: values may come before it.

Columns and labels:
[1] = target: hTR-FcΔH (human transferrin receptor residues 1-97 fused to CH1 and hinge deleted human IgG1 heavy chain constant region), expressed on BHK cells (human); assay: cell ELISA on BHK-FcΔH cells, goat anti-human IgG Fc alkaline phosphatase conjugate 1:1000, PNPP substrate
[2] = target: T1, human FcγRI on interferon-γ-treated U937 cells (human, UniProt P12314 16-374); assay: inferred from Fc receptor-mediated superoxide production in U937 cells
T1 construct: whole, on cells; also called FcγR1; CD64
Experimental: To assess whether cell surface expression of reverse Fc was biologically active in terms of Fc receptor binding and complement fixation, Fc receptor-mediated superoxide production in the human monocyte-like cell line was examined. Superoxide was measured spectrophotometrically as a function of the cell's ability to reduce cytochrome c. Superoxide production was determined using the 96-well microtiter plate assay of Tao, et al., *J Leukoc Biol*, 58: 203–208 (1995). 25,000 cells/well of either BHK-WT (control), opsonized BHK cells, or BHK-reverse Fc clones were added to the assay plate containing either human monocyte-like U937 cells (ATCC, Rockville, Md.) pre treated with recombinant human interferon-γ (R&D Systems, Minneapolis, Minn.) or lavaged mouse peritoneal macrophages. The O_2-release was measured as the superoxide dismutase (SOD) inhibitable reduction of cytochrome c at 550 nm by using a ThermoMax Plate reader (Molecular Devices, Menlo Park, Calif.). The rate of O_2-production was monitored from time 0 to […] after stimulation.

T1 sequence (P12314 16-374): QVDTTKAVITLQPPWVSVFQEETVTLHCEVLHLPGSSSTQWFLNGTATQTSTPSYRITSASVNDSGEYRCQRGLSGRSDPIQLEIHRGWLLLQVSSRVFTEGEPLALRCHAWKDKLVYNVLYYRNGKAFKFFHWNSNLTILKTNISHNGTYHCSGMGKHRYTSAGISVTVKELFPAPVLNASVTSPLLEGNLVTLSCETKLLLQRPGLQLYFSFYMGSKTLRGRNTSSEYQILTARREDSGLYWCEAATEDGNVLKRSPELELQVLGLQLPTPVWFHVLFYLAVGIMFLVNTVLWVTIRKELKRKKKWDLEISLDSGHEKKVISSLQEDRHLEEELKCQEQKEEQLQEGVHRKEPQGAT

Cell Surface Fc (OD405) [1]: 2.8 OD405
Molecule: Goat anti-human IgG Fc alkaline phosphatase conjugate (Sigma) (antibody)

binding result [2]: binds
B1: hTR-FcΔH (human transferrin receptor residues 1-97 fused to CH1 and hinge deleted human IgG1 heavy chain constant region), expressed on BHK cells (Fc fusion)
chain: MMDQARSAFSNLFGGEPLSYTRFSLARQVDGDNSHVEMKLAVDEEENADNNTKANVTKPKRCSGSICYGTIAVIVFFLIGFMIGYLGYCKGVEPKTEGSAPELLGGPSVFLFPPKPKDTLMISRTPEVTCVVVDVSHEDPEVKFNWYVDGVEVHNAKTKPREEQYNSTYRVVSVLTVLHQDWLNGKEYKCKVSNKALPAPIEKTISKAKGQPREPQVYTLPPSRDELTKNQVSLTCLVKGFYPSDIAVEWESNGQPENNYKTTPPVLDSDGSFFLYSKLTVDKSRWQQGNVFSCSVMHEALHNHYTQKSLSLSPGK
notes: also called BHK-FcΔH; BHK-FcΔH(3)
